These results are taken from patent US20240409643A1, “ANTI-NMDAR2B ANTIBODIES, ANTIBODY-DRUG CONJUGATES, AND CHIMERIC ANTIGEN RECEPTORS, AND COMPOSITIONS AND METHODS OF USE” (THE TRUSTEES OF DARTMOUTH COLLEGE, priority 2021, published 2024).

Changes are numbered by the printed parent chain. “Also recorded” adds a separate entry of the source. Ends that are not written are not given here. * marks the point of attachment. 125I = [125I]*

One data set concerns LNCAP cells. The data set can be described thus: LNCAP cell viability assay (AlamarBlue). Type of data set: cell-based. The conditions noted are these: for Effect on LNCAP cell viability: 48 hours incubation, % of fluorescence of vehicle treated cells. The method, then: LNCAP cells were plated in 96 well plates at 1-2×10^4 cells/well. The cells were incubated with PBS with glycine containing albumin (1.25 mg/ml) in the presence of different concentrations of a NMDAR receptor antagonist, MK-801 (also known as dizocilpine) or memantine, dilutions of the anti-NMDAR1 antisera described in Example 1 or anti-NMDAR1 IgG isolated from such antisera, or vehicle only. Each group was run in quadruplicate. AlamarBlue® was later added to each well following an incubation period of 48 hours, and fluorescent readings were taken with excitation at 530-560 nm and emission at 590 nm and above on a SYNERGY™ HT Multi Detection Reader to (BioTek®). Cell viability (%) was calculated as % of fluorescence of vehicle treated cells at 48 hours.

Data set [1] relates to NCI H82 cells. The data set can be described thus: In vivo combination treatment of NCI H82 tumors in nu/nu mice: cyclophosphamide followed by ifenprodil. The conditions noted are these: cyclophosphamide 75 mg/kg body weight daily for 3 days. The method, then: Anti-cancer agent: Cyclophosphamide, an alkylating agent, was used as an exemplary anti-cancer agent.
(§1) Anti-NMDA receptor agent: ifenprodil was used as an exemplary NMDA receptor antagonist
Mouse treatment: Male nu/nu mice were injected subcutaneously with NCI H82 cells (about 10^7 cells/mouse). […] Animals were divided into two groups. […] The other group was treated with saline vehicle. Changes in the tumor size were recorded daily.

The conditions of data set [2]: cited from earlier work.
In data set [3] the test system is NCI H82 cells. Put plainly: In vivo treatment of NCI H82 tumors in nu/nu mice with ifenprodil. The method, then:
as §1
Mouse treatment: Male nu/nu mice were injected subcutaneously with NCI H82 cells (about 10^7 cells/mouse). Tumors became obvious after 2-3 weeks and commenced growing rapidly. Animals were divided into two groups. […] The other group was treated with saline vehicle. Changes in the tumor size and body weight were recorded daily.

Data set [4] has as its target T1, 125I-labeled NMDAR2B immunogen peptide (human).
T1 construct: also called ^125I-labeled (radiolabel on the N-terminal tyrosine) NMDAR2B immunogen peptide
T1 peptide: Y(125I)KDAHEKDDF-NH2
Put plainly: radioimmunoassay with 125I-labeled and free peptide. The method, then:
Radioimmunoassay: Radioimmunoassay on Fab3 through Fab10 was performed using ¹²⁵I-labeled (radiolabel on the N-terminal tyrosine) and free (no radiolabel or additional conjugation) NMDAR2B immunogen peptides.

The target in data set [5] is T2, Biotinylated NMDAR2B immunogen peptide (human, also: biotinylated, site not given here).
T2 construct: also called biotinylated peptide
T2 peptide: YKDAHEKDDF-NH2
The data set can be described thus: ELISA, Fab captured on anti-human IgG, streptavidin-HRP detection. The method, then: (§2) ELISA assay: 96 well plates (ELISA Microlon 66 (Greiner Bio-one); #655061) were coated with Affinipure anti-human IgG antibodies (which bind to Fabs) (Jackson Immunoresearch Laboratories; #109-005-0060). Each well was added with a 50 μl volume containing 5 ng or 10 ng of an appropriate Fab and another […] volume containing the NMDAR2B immunogen peptide in a range of 10 μg to 10 ng, followed by incubation at 4° C. for 24-48 hours. Plates were washed, and each well was incubated with the biotinylated peptide at 100 ng/ml for 30 minutes to one hour and then with HRP-conjugated streptavidin (Thermo Industries; Product #N100) was added at 1:10,000 dilution for 30 minutes. Plates were washed and incubated with a mixture of 0.007% H₂O₂ and Amplex® Ultrared Reagent (Molecular Probes) for one hour, and fluorescence was read at excitation at 550 nm and fluorescence at 590 nm on a SYNERGY™ HT Multi Detection Reader to (BioTek®).

The target of data set [6] is T3, BSA-coupled NMDAR2B immunogen peptide (human; bovine, UniProt P02769 25-607, carrier, cross-linked to the peptide with glutaraldehyde; C-terminal amide; coupled to BSA with glutaraldehyde).
T3 construct: also called NMDAR2B immunogen peptide coupled to BSA; unlabeled BSA-coupled NMDAR2B immunogen peptide
T3 sequence (P02769 25-607 limits assumed): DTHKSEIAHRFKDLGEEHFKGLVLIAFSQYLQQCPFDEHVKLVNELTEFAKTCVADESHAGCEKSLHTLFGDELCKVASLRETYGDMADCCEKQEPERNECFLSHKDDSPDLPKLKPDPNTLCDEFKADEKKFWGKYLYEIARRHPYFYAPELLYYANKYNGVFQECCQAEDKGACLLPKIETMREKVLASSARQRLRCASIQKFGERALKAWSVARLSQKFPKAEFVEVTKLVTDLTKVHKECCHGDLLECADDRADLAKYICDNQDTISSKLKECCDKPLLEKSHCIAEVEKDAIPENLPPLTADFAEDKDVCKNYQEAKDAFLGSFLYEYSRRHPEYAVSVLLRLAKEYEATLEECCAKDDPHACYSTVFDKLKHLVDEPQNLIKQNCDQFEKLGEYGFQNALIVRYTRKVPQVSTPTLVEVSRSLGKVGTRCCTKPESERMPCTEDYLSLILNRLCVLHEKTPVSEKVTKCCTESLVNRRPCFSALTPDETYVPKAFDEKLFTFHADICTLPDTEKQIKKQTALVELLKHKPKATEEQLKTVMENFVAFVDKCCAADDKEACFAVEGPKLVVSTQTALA
Put plainly: competition displacement ELISA, additional studies (FIG. 7B). The method, then: as §2
ELISA assay: ELISA as in Example 6 was performed using the NMDAR2B immunogen peptide coupled to BSA (as prepared in Example 4) and the NMDAR2B immunogen peptide coupled to biotinylated BSA (as prepared in Example 7). Competition displacement curves were generated as repeated points in quadruplicate, and dissociation constants for respective Fabs to the BSA-coupled NMDAR2B immunogen peptide were calculated.

In data set [7] the target is T4, NMDAR2B immunogen peptide, free (YKDAHEKDDF-amide) (human).
T4 construct: Free form: no radiolabel and no further conjugation; also called free NMDAR2B immunogen peptide; free peptide
T4 peptide: YKDAHEKDDF-NH2
Put plainly: competition ELISA against peptide coupled to biotinylated BSA. The method, then: as §2
ELISA assay: ELISA as in Example 6 was performed using the NMDAR2B immunogen peptide coupled to biotinylated BSA and then, to test competition, the free NMDAR2B immunogen peptide.

On to `C[C@]12N[C@H](Cc3ccccc31)c1ccccc12` [MK-801, dizocilpine], for which, in the data set on LNCAP cells, the “Effect on LNCAP cell viability” value is on record as “reduced cell viability in a does-dependent manner”. In addition, the “Concentration at which the reduction of cell viability was statistically significant (p<0.01)” value with LNCAP cells (LNCAP cells, 48 hours) is on record as > 300 pM.

Regarding `O=P1(N(CCCl)CCCl)NCCCO1` (centres unmarked) [cyclophosphamide], the “Effect of cyclophosphamide treatment on tumor growth” value in the data set on NCI H82 cells [1] is “does not inhibit tumor growth beyond the time of cyclophosphamide administration; also recorded: slowed but did not stop tumor growth”.

In the case of `CC(C(O)c1ccc(O)cc1)N1CCC(Cc2ccccc2)CC1` (centres unmarked) [ifenprodil], the ED50 in mice entry in data set [2] is “about 350 mg/kg body weight”. Besides, the “Tumor growth with ifenprodil alone” value in the data set with NCI H82 cells [3] (animals that only received ifenprodil but not cyclophosphamide, after a day of decrease in size) is reported as “continued to grow”. Also, the “Time for tumors to grow back to their original size” value in the data set with NCI H82 cells [3] (ifenprodil 2.5 mg/kg body weight intraperitoneally once daily) is “about 10 days”. For the same molecule, the “Tumor growth relative to original size” value with NCI H82 cells [3] (ifenprodil 2.5 mg/kg body weight intraperitoneally once daily, by two weeks of treatment, saline controls >6 times) is < 2 times their original size. In addition, the “Tumor size relative to original size after initial shrinkage” value with NCI H82 cells [3] (ifenprodil 2.5 mg/kg body weight intraperitoneally once daily, in about a day) is reported as “about 80%”. For the same molecule, the “Body weight versus saline control” value in the data set with NCI H82 cells [3] (over 8 days of treatment) was “no differences between groups”.

In the case of `CC12CC3CC(C)(C1)CC(N)(C3)C2` [memantine], the “Effect on LNCAP cell viability” value in the data set on LNCAP cells was “reduced cell viability in a does-dependent manner”.

B1: Fab9 (Fab, V domains shown)
VH: EVQLVESGGGLVQPGGSLRLSCAASGFNLSYSSMHWVRQAPGKGLEWVASISPYSGSTYYADSVKGRFTISADTSKNTAYLQMNSLRAEDTAVYYCARYYWYYYYGFDYWGQGTLVTVSS
VL: DIQMTQSPSSLSASVGDRVTITCRASQSVSSAVAWYQQKPGKAPKLLIYSASSLYSGVPSRFSGSRSGTDFTLTISSLQPEDFATYYCQQYVGYGSPITFGQGTKVEIK
notes: also called Ab9 (IgG form with the same VH and VL)
B1: the binding result in data set [4], in data set [5] and in data set [7] was “no binding” in each case. Also, in data set [6], the equilibrium dissociation constant (Kd) was ~5 nM.

B2: Fab4 (Fab, V domains shown)
VH: EVQLVESGGGLVQPGGSLRLSCAASGFNLYYYSIHWVRQAPGKGLEWVAYISSYYGYTYYADSVKGRFTISADTSKNTAYLQMNSLRAEDTAVYYCARYYPGGWHAFDYWGQGTLVTVSS
VL: B1 VL with V92Y, S96Y
notes: also called Ab4 (IgG form with the same VH and VL)
Turning to B2, the binding result in data set [4], in data set [5] and in data set [7] was “no binding” each time.

B3: Fab10 (Fab, V domains shown)
VH: EVQLVESGGGLVQPGGSLRLSCAASGFNLYSSYMHWVRQAPGKGLEWVASISSSYGYTYYADSVKGRFTISADTSKNTAYLQMNSLRAEDTAVYYCARTVRGSKKPYFSGWAMDYWGQGTLVTVSS
VL: DIQMTQSPSSLSASVGDRVTITCRASQSVSSAVAWYQQKPGKAPKLLIYSASSLYSGVPSRFSGSRSGTDFTLTISSLQPEDFATYYCQQGSYLITFGQGTKVEIK
notes: also called Ab10 (IgG form with the same VH and VL)
B3: the binding result in data set [4], in data set [5] and in data set [7] was “no binding” each time.

B4: Fab6 (Fab, V domains shown)
VH: B3 VH with L29I, M34I
VL: B3 VL with S92G, Y93S
notes: also called Ab6 (IgG form with the same VH and VL)
Regarding B4, the binding result in data set [4], in data set [5] and in data set [7] was “no binding” throughout.

B5: Fab8 (Fab, V domains shown)
VH: B3 VH with L29I, S31Y
VL: B3 VL with G91A
notes: also called Ab8 (IgG form with the same VH and VL)
Take B5: the binding result in data set [4], in data set [5] and in data set [7] was “no binding” in each case.

B6: Fab5 (Fab, V domains shown)
VH: B3 VH with S52Y, G56S, Y57S
VL: B3 VL with S92A, Y93G
notes: also called Ab5 (IgG form with the same VH and VL)
B6: the binding result in data set [4], in data set [5] and in data set [7] was “no binding” each time.

B7: Fab7 (Fab, V domains shown)
VH: B3 VH with L29F, Y30S, Y33S, M34I
VL: B3 VL with Y93H
notes: also called Ab7 (IgG form with the same VH and VL)
For B7, the binding result in data set [4], in data set [5] and in data set [7] was “no binding” each time.
